Assay [1] deals with T1, Cynomolgus macaques TSLP recombinant protein (Cynomolgus macaques, UniProt Q969D9 29-159 (human entry), limits assumed, biotinylated in the blocking assays (sites not given)).
T1 construct: also called cyTSLP; biotinylated Cynomolgus macaques TSLP protein
T1 chain: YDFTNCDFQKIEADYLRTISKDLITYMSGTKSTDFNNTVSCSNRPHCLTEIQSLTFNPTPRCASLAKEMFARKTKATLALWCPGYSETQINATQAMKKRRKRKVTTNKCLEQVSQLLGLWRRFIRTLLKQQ
As to the kind of experiment: ELISA on coated cynomolgus TSLP.

Assay [2] has as its target T2, human TSLP recombinant protein (human, UniProt Q969D9 29-159, biotinylated in the blocking and cell-binding assays (sites not given)).
T2 construct: also called biotinylated human TSLP protein
The experiment in a line: ELISA, human TSLP coated at 1 ug/mL, anti-human IgG Fc-HRP, A450. A general note: In an ELISA, binding on a coated surface is turned into a signal by an enzyme label.

The target in assay [3] is T1, Cynomolgus macaques TSLP recombinant …. The experiment in a line: competition ELISA, biotin-cynomolgus TSLP to coated cynomolgus TSLPR-Fc.
Protocol: Cynomolgus macaques TSLPR recombinant protein was coated onto a 96-well microtiter plate at 1 g/mL in carbonate buffer overnight at 4° C. The plate was washed three times with PBS and blocked by adding 200 μL/well of PBS containing 2% skim milk for 1 hour. […] The 96-well plate was washed three times with PBS, and 100 μL of the incubated mixture was added to each well and incubated for 1 hour at room temperature. After washing with PBST and PBS three times, respectively, 100 μL of SA-HRP was added to each well and incubated at room temperature for 30 minutes in the dark. After washing with PBST and PBS three times, respectively, 100 μL of TMB substrate was added to well for color development at 37° C. for 10 minutes, the reaction was terminated with 50 μL of 2M sulfuric acid solution per well, and the absorbance was read at a wavelength of 450 nm.
Assay [4] concerns the target T2, human TSLP recombinant protein. As to the kind of experiment: cell-based or functional assay.
For assay [5] the target is unchanged. As to the kind of experiment: cell-based or functional assay. The source holds these as a separate data set.
For assay [6] the target is unchanged. As to the kind of experiment: ELISA on coated human TSLP.
Protocol: (§1) The plate was washed three times with PBS and blocked by adding 200 μL/well of PBS containing 2% skim milk for 1 hour. […] After washing with PBST and PBS three times, respectively, 100 μL of TMB substrate was added to each well for color development at 37° C. for 10 minutes, the reaction was terminated with 50 μL of 2M sulfuric acid solution per well, and the absorbance was read at a wavelength of 450 nm.
The target is the same in assay [7]. The experiment in a line: flow cytometry competition, biotin-human TSLP to Ba/F3-hTSLPR-IL7Rα cells. In general terms: A flow cytometer gives signals particle by particle.
Protocol: Ba/F3-hTSLPR-IL7Rα cells were washed three times with PBS, centrifuged at 300 g for 3 minutes, and blocked with 3% BSA/PBS for 30 minutes. The cells were resuspended and added to a 96-well U-plate at 5×10⁴/well.
Assay [8] has the same target. As to the kind of experiment: SPR BIAcore T200, antibody captured on Protein A, human TSLP injected. (In SPR one partner is held on a chip, and binding of the other changes the refractive index at the surface.)
Protocol: (§2) After each injection cycle, the Protein A chip surface was regenerated with regeneration buffer 10 mM glycine (pH 2.0) at a flow rate of 30 μL/min. The association rate constant (ka) and dissociation rate constant (kd) and equilibrium dissociation constant KD were analyzed by fitting the resulting data to a Langmuir 1:1 kinetics theoretical model using BIAevaluation software.
Assay [9] has the same target. As to the kind of experiment: competition ELISA, biotin-human TSLP to coated human TSLPR-Fc.
Protocol: (§3) Human TSLPR recombinant protein was coated onto a 96-well microtiter plate at 1 μg/mL in carbonate buffer overnight at 4° C. The plate was washed three times with PBS and blocked by adding 200 μL/well of PBS containing 2% skim milk for 1 hour. […] The 96-well plate was washed three times with PBS, and 100 μL of the incubated mixture was added to each well and incubated for 1 hour at room temperature. After washing with PBST and PBS three times, respectively, 100 μL of SA-HRP was added to each well and incubated at room temperature for 30 minutes in the dark. After washing with PBST and PBS three times, respectively, 100 μL of TMB substrate was added to well for color development at 37° C. for 10 minutes, the reaction was terminated with 50 μL of 2M sulfuric acid solution per well, and the absorbance was read at a wavelength of 450 nm.
Assay [10] addresses T1, Cynomolgus macaques TSLP recombinant …. As to the kind of experiment: SPR BIAcore T200, antibody captured on Protein A, cynomolgus TSLP injected.
Protocol: as §2
Assay [11] has as its target T2, human TSLP recombinant protein. The experiment in a line: cell-based or functional assay. This is another data set of the same source.
For assay [12], the target named is T1, Cynomolgus macaques TSLP recombinant …. As to the kind of experiment: ELISA on coated cynomolgus TSLP.
Protocol: as §1
The target in assay [13] is T2, human TSLP recombinant protein. The experiment in a line: ELISA on coated human TSLP. The source holds these as a separate data set.
Protocol: as §1
Assay [14] addresses T1, Cynomolgus macaques TSLP recombinant …. The experiment in a line: competition ELISA, biotin-cynomolgus TSLP to coated cynomolgus TSLPR-Fc.
Protocol: Cynomolgus macaques TSLPR recombinant protein was coated onto a 96-well microtiter plate at 1 μg/mL in carbonate buffer overnight at 4° C. The plate was washed three times with PBS and blocked by adding 200 μL/well of PBS containing 2% skim milk for 1 hour. […] The 96-well plate was washed three times with PBS, and 100 μL of the incubated mixture was added to each well and incubated for 1 hour at room temperature. After washing with PBST and PBS three times, respectively, 100 μL of SA-HRP was added to each well and incubated at room temperature for 30 minutes in the dark. After washing with PBST and PBS three times, respectively, 100 μL of TMB substrate was added to well for color development at 37° C. for 10 minutes, the reaction was terminated with 50 μL of 2M sulfuric acid solution per well, and the absorbance was read at a wavelength of 450 nm.
The target in assay [15] is T2, human TSLP recombinant protein. As to the kind of experiment: cell-based or functional assay. This is another data set of the same source.
Assay [16] shares this target. The experiment in a line: competition ELISA, biotin-human TSLP to coated human TSLPR-Fc. This is another data set of the same source.
Protocol: as §3
Assay [17] has the same target. The experiment in a line: SPR BIAcore T200, antibody captured on Protein A, human TSLP injected. This is another data set of the same source.
Protocol: After each injection cycle, the Protein A chip surface was regenerated with regeneration buffer 10 mM glycine (pH 2.0) at a flow rate of 30 μL/min.
The association rate constant (ka) and dissociation rate constant (kd) and equilibrium dissociation constant KD were analyzed by fitting the resulting data to a Langmuir 1:1 kinetics theoretical model using BIAevaluation software.

Read-outs that look alike come from different tables or passages of the source.

This note sets out measurements from patent publication US20230029835A1 (KEYMED BIOSCIENCES, published 2023).

By IC50 is commonly meant the concentration that gives 50% inhibition. Broadly, the EC50 is the concentration that produces a half-maximal response. The term Kd denotes the equilibrium constant for the complex coming apart. Broadly, the koff is a measure of how fast the partners let go of each other. The term kon denotes a measure of how fast the partners come together.

B1: Ab12 (antibody, V domains shown)
VH: QVQLVQSGAEVKKPGSSVKVSCKASGYTFTDYWMHWVRQAPGQGLEWMGTIDNSDSDTSLNQKFQGRVTITADESSSTAYMELSSLRSEDTAVYYCARSLDGYYDYWGQGTLVTVSS
VL: DIQMTQSPSSLSASVGDRVTITCRASENIYSYLAWYQQKPGKAPKLLIYNARTLPEGVPSRFSGSGSGTDFTLTISSLQPEDFATYYCQHHYTTPWTFGQGTKVEIK
notes: Humanized; also called h39G5VHv12/h39G5VKv1
In the case of B1, the binding result in [1] and in assay [2] was “binds” in each case.

B2: Ab22 (antibody, V domains shown)
VH: QVQLVQSGAEVKKPGSSVKVSCKASGYSFISYWIHWVRQAPGQGLEWMGIIDPSDSDTSLNQKFQGRVTLTVDKSSTTAYMELSSLRSEDTAVYYCARSLDGYYDYWGQGTLVTVSS
VL: DIQMTQSPSSLSASVGDRVTITCRTSENIYSYLAWYQQKPGKAPKLLIYFAKTLTDGVPSRFSGSGSGTDFTLTISSLQPEDFATYYCQHHYGTPWTFGQGTKVEIK
notes: Humanized; also called h39G5VHv1/h71G4VKv1; h39G5VHv1/h7IG4VKv1 hIgG1
Consider B2, for which the values for the IC50 in assay [3], in [7] and in assay [9] were 1000 pM, 390 pM and 1800 pM, respectively. In addition, the half-maximal effective concentration (EC50) was 770 pM in assay [1] and 290 pM in [6]. For the same molecule, the “Inhibition of Cell Proliferation IC50” value in assay [4] worked out at 2200 pM. In [5], the “STAT5 signal inhibition IC50” value is 170 pM. In addition, the dissociation constant (Kd) was determined as 0.064 pM in assay [8] and 0.0421 pM in [10]. The results for the off-rate (koff) in [8] and in assay [10] were 1.07e-07 s⁻¹ and 6.7e-08 s⁻¹, respectively. Also, the kon in assay [8] stood at 1.68e+06 M⁻¹ s⁻¹; in assay [10], 1.59e+06 M⁻¹ s⁻¹.

B3: Ab14 (antibody, V domains shown)
VH: EVQLVQSGAEVKKPGESLKISCKASGYTFTDYWMHWVRQMPGKGLEWMGTIDNSDSDTSLNQSFQGHVTISADKSISTAYLQWSSLKASDTAMYYCARSLDGYYDYWGQGTLVTVSS
VL: DIQMTQSPSSLSASVGDRVTITCRASENIYSYLAWYQQKPGKAPKLLIYNARTLPEGVPSRFSGSGSGTDFTLTISSLQPEDFATYYCQHHYTTPWTFGQGTKVEIK
notes: Humanized; also called h39G5VHv14/h39G5VKv1
On to B3, for which the binding result in [1] is recorded as “no binding”; in [2], “binds”.

B4: Ab23 (antibody, V domains shown)
VH: QVQLVQSGAEVKKPGSSVKVSCKASGYSFISYWIHWVRQAPGQGLEWMGIIDPSDSDTSLNQKFQGRVTITADESTSTAYMELSSLRSEDTAVYYCARSLDGYYDYWGQGTLVTVSS
VL: DIQMTQSPSSLSASVGDRVTITCRTSENIYSYLAWYQQKPGKAPKLLIYFAKTLTDGVPSRFSGSGSGTDFTLTISSLQPEDFATYYCQHHYGTPWTFGQGTKVEIK
notes: Humanized; also called h39G5VHv2/h71G4VKv1; h39G5VHv2/h71G4VKv1 hIgG1
For the molecule B4, the results for the IC50 in assay [3], in assay [7] and in [9] were 1540 pM, 330 pM and 1760 pM, respectively. Besides, the EC50 turned out to be 830 pM in assay [1] and 240 pM in assay [6]. In addition, the “Inhibition of Cell Proliferation IC50” value in assay [4] was 1100 pM. The “STAT5 signal inhibition IC50” value in [5] is 170 pM. Further, the Kd in assay [8] amounted to 0.0812 pM; in assay [10] it was 0.00708 pM. Besides, the koff in assay [8] was determined as 1.61e-07 s⁻¹; in assay [10], 1.36e-08 s⁻¹. Moreover, the kon was 1.98e+06 M⁻¹ s⁻¹ in assay [8] and 1.93e+06 M⁻¹ s⁻¹ in [10].

B5: Ab26 (antibody, V domains shown)
VH: QVQLVQSGAEVKKPGSSVKVSCKASGYTFTDYWMHWVRQAPGQGLEWMGIIDPSDSDTSLNQKFQGRVTITADTSTSTAYMELSSLRSEDTAVYYCARSLDGYYDYWGQGTLVTVSS
VL: DIQMTQSPSSLSASVGDRVTITCRTSENIYSYLAWYQQKPGKAPKLLIYFAKTLTDGVPSRFSGSGSGTDFTLTISSLQPEDFATYYCQHHYGTPWTFGQGTKVEIK
notes: Humanized; also called h39G5VHv10/h71G4VKv1; h39G5VHv10/h71G4VKv1 hIgG1
For the molecule B5, the IC50 in [3] turned out to be 690 pM; in [7], 390 pM; in [9] it was 1660 pM. Also, the half-maximal effective concentration (EC50) in [1] was 950 pM; in [6], 180 pM. The “Inhibition of Cell Proliferation IC50” value in [4] was found to be 1500 pM. Besides, in assay [5], the “STAT5 signal inhibition IC50” value was 180 pM. Also, the dissociation constant (Kd) in assay [8] was found to be 2.03 pM; in [10], 0.308 pM. For the same molecule, the off-rate (koff) in assay [8] worked out at 2.79e-06 s⁻¹; in assay [10], 3.82e-07 s⁻¹. For the same molecule, the results for the association rate constant (kon) in [8] and in [10] were 1.37e+06 M⁻¹ s⁻¹ and 1.24e+06 M⁻¹ s⁻¹, respectively.

B6: Ab24 (antibody, V domains shown)
VH: QVQLVQSGAEVKKPGSSVKVSCKASGYTFTDYWMHWVRQAPGQGLEWMGIIDPSDSDTSLNQKFQGRVTLTVDTSTSTAYMELSSLRSEDTAVYYCARSLDGYYDYWGQGTLVTVSS
VL: DIQMTQSPSSLSASVGDRVTITCRTSENIYSYLAWYQQKPGKAPKLLIYFAKTLTDGVPSRFSGSGSGTDFTLTISSLQPEDFATYYCQHHYGTPWTFGQGTKVEIK
notes: Humanized; also called h39G5VHv5/h71G4VKv1; h39G5VHv5/h71G4VKv1 hIgG1
With B6, the half-maximal inhibitory concentration (IC50) stood at 1630 pM in [3], 360 pM in [7] and 2010 pM in [9]. The concentration for a half-maximal effect (EC50) in [1] is 1370 pM; in assay [6], 220 pM. In addition, the “Inhibition of Cell Proliferation IC50” value in assay [4] worked out at 1040 pM. Besides, the “STAT5 signal inhibition IC50” value in [5] came to 150 pM. The dissociation constant (Kd) amounted to 0.0234 pM in assay [8] and 0.179 pM in assay [10]. Further, the values for the koff in assay [8] and in assay [10] were 3.99e-08 s⁻¹ and 2.85e-07 s⁻¹, respectively. Also, the kon came out at 1.7e+06 M⁻¹ s⁻¹ in assay [8] and 1.59e+06 M⁻¹ s⁻¹ in assay [10].

B7: 71G4 chimeric antibody (antibody, V domains shown)
VH: QVQLQQSGAELVMPGASVKMSCKASGYTFTDYWMHWVKQRPGQGLEWIGTIDNSDSDTTYNQKFKGKVTLTVDESSSTAYMQLSSLTSEDSAVYYCARSVDGYLDYWGQGTTLTVSS
VL: EIQMTQSPASLSASVGETVTITCRTSENIYSYLAWYQQKQGKSPQLLVYFAKTLTDGVPSRLSGSGSGTQFSLKINSLQPEDFGSYYCQHHYGTPWTFGGGTKLEIK
Consider B7, for which the “Inhibition IC50 of cell proliferation” value in assay [11] turned out to be 12700 pM. Besides, the EC50 in assay [12] amounted to 600 pM. For the same molecule, the EC50 in assay [13] is 320 pM. Besides, the IC50 in assay [14] came to 560 pM. For the same molecule, the “Inhibition IC50 of STAT5 reporter gene” value in assay [15] was determined as 1670 pM. Further, the IC50 in [16] was found to be 1520 pM. In [17], the Kd was determined as 10 pM, the koff came out at 3.16e-05 s⁻¹ and the on-rate constant (kon) is 3.15e+06 M⁻¹ s⁻¹.

B8: 80D12 chimeric antibody (antibody, V domains shown)
VH: QVQLKQSGPQLVRPGASVKISCKASGYSFTSYWMHWVKQRPGQGLEWIGMIDPSDSETTLNQKFKDKATLTVDKSSTTAYMQLSSPTSEDSAVYYCARSLDGYYDYWGQGTTLTVSS
VL: DVQMIQSPASLSASVGETVTITCRTSENIYSYLAWYQQKQGKSPQLLVYFAKTLTDGVPSRFSGSGSGTQFSLKINSLQPEDFGSYYCQHHYGTPWTFGGGTKLEIK
B8: the “Inhibition IC50 of cell proliferation” value in [11] was found to be 44700 pM. Also, the figures for the concentration for a half-maximal effect (EC50) in assay [12] and in assay [13] were 350 pM and 210 pM, respectively. Also, the IC50 is 630 pM in assay [14] and 2440 pM in [16]. Also, the “Inhibition IC50 of STAT5 reporter gene” value in [15] worked out at 3840 pM. For the same molecule, in assay [17], the dissociation constant Kd amounted to 5.96 pM. In addition, in [17], the koff was 2.84e-05 s⁻¹. For the same molecule, the kon in assay [17] came out at 4.77e+06 M⁻¹ s⁻¹.

B9: 39G5-H8 chimeric antibody (antibody, V domains shown)
VH: QVQLLQSGPQLVRPGASVKISCKASGYSFISYWIHWVKQRPGQGLEWIGIIDPSDSDTSLNQKFKDKATLTVDKSSTTAYIQLSSPTSEDSAVYYCARSLDGYYDYWGQGTTLTVSS
VL: DIQMTQSPASLSASVGETVTITCRASENIYSYLAWYQQKQGKSPQLLVYNARTLPEGVPSRFSGSGSGTQFSLKINSLQPEDFGIYYCQHHYTTPWTFGGGTKLEIK
For B9, the “Inhibition IC50 of cell proliferation” value in assay [11] is 39100 pM. Besides, the values for the concentration giving a half-maximal response (EC50) in [12] and in assay [13] were 540 pM and 150 pM, respectively. For the same molecule, the IC50 in assay [14] was 1740 pM; in assay [16], 3420 pM. The “Inhibition IC50 of STAT5 reporter gene” value in assay [15] worked out at 3330 pM. In assay [17], the dissociation constant (Kd) worked out at 9.5 pM. For the same molecule, the koff in assay [17] came out at 4.6e-05 s⁻¹. In assay [17], the association rate constant (kon) is 4.84e+06 M⁻¹ s⁻¹.
